Laboratory results as given in US20180125924A1 (NORTHWESTERN UNIVERSITY, published 2018).
Groups on a side chain read outwards from the residue. No end group written: not given here. *: point of attachment. triazole = 1,2,3-triazole formed by click reaction linking the lysine-side-chain spacer to the azidoethyl glycoside; Palmitoyl = CCCCCCCCCCCCCCCC(=O)*

Molecular target: recombinant human BMP-2 obtained from Medtronic Sofamor Danek (human, UniProt P12643 283-396)
Assay: cell-based or functional assay

Chain of recombinant human BMP-2 obtained from Medtronic Sofamor Danek (P12643 283-396 limits assumed): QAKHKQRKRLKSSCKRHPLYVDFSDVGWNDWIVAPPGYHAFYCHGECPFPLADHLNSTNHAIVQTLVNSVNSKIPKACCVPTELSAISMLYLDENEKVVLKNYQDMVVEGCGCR

Palmitoyl-VVAAEEK([COCH2(O(CH2)2)2NHCO(CH2)2-triazole-ethyl-2‑acetamido‑3,4,6‑tri‑O‑sulfo‑2‑deoxy‑beta‑D‑glycopyranoside]) (also: self-assembled nanofibers) [3,4,6S-GlcNAc PA (PA 1) nanofibers]
ALP activity in C2C12 cells treated with BMP-2 (75 ng/mL) and PA nanofibers (25 uM): 9 fold
